Source: publication PMC5098423 (DNA repair, 2015)

Target: T1, Q324H MUTYH (human, UniProt Q9UIF7-3 1-535, Q324H)
T1 sequence (looked up): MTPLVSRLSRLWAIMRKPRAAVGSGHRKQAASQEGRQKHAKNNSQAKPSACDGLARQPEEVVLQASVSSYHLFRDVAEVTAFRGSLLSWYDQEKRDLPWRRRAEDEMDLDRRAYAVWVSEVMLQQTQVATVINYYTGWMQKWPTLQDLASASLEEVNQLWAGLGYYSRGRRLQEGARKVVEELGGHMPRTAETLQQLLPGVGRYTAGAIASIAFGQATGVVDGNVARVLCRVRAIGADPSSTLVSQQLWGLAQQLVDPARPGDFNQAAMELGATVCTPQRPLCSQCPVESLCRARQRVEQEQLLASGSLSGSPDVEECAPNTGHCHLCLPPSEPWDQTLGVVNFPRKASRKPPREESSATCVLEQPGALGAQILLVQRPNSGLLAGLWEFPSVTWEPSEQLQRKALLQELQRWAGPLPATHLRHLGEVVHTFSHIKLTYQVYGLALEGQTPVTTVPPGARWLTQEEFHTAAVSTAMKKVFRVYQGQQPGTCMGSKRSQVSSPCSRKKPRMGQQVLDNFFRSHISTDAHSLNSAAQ
Experiment: pull-down

B1: Flag-tagged Hus1 (natural protein, UniProt O60921 1-280, looked up)
chain: MKFRAKIVDGACLNHFTRISNMIAKLAKTCTLRISPDKLNFILCDKLANGGVSMWCELEQENFFNEFQMEGVSAENNEIYLELTSENLSRALKTAQNARALKIKLTNKHFPCLTVSVELLSMSSSSRIVTHDIPIKVIPRKLWKDLQEPVVPDPDVSIYLPVLKTMKSVVEKMKNISNHLVIEANLDGELNLKIETELVCVTTHFKDLGNPPLASESTHEDRNVEHMAEVHIDIRKLLQFLAGQQVNPTKALCNIVNNKMVHFDLLHEDVSLQYFIPALS
With B1 the “percent decrease of the interaction relative to WT MUTYH” value was about 20%.
